Key:
Assay in all cases: filter binding
[1] = molecular target: T1, Sc CTD (Saccharomyces cerevisiae) (UniProt P48527); conditions: 25C; n=1.8; 100 mM KCl, 5 mM MgCl2, 20 mM Tris-HCl pH 7.5, 5 mM DTT, 0.1 mg/ml BSA, 10% glycerol, 5 pM RNA, 30 min, 25C or 37C; nitrocellulose/nylon filter
T1 sequence: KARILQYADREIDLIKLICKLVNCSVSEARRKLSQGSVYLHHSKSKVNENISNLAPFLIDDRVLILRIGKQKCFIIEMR

[2] = molecular target: T2, CYT-18 NTDs (Neurospora crassa) (UniProt P12063); conditions: 100 mM KCl, 5 mM MgCl2, 20 mM Tris-HCl pH 7.5, 5 mM DTT, 0.1 mg/ml BSA, 10% glycerol, 5 pM RNA, 30 min, 25C or 37C, nitrocellulose/nylon filter
T2 sequence: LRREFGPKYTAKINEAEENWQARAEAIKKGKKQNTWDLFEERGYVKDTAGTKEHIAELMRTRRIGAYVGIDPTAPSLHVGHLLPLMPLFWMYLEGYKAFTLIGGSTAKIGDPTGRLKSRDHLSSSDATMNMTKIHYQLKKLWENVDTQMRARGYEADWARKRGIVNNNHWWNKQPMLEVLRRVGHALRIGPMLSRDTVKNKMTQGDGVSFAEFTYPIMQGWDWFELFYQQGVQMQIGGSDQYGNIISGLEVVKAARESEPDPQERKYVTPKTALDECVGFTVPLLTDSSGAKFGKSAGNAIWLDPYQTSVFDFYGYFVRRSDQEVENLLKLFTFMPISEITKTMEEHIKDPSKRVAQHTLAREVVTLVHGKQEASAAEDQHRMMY

[3] = system: Sc mtTyrRS (Saccharomyces cerevisiae); conditions: 100 mM KCl, 5 mM MgCl2, 20 mM Tris-HCl pH 7.5, 5 mM DTT, 0.1 mg/ml BSA, 10% glycerol, 5 pM RNA, 30 min, 25C or 37C; nitrocellulose/nylon filter

Row | Substance | K half [1] | Kd [2] | K half ([2]; 25C, n=1.6) | Kd [3] | Kd ([2]; 25C, low end of stated range, strongest group I intron) | Kd ([2]; 37C, low end of stated range, strongest group I intron) | Kd ([2]; 25C, high end of stated range, weakest group I intron) | Kd ([2]; 37C, high end of stated range, weakest group I intron)
1 | Ll.LtrB group II intron RNA (dORF, branch-point nucleotide deleted) | 110 nM | 440 nM | 240 nM | 440 nM | – | – | – | –
2 | Nc ND1m group I intron RNA | – | – | – | – | 200 nM | 440 nM | – | –
3 | Nc mt LSU group I intron RNA | – | – | – | 430 nM | – | – | 590 nM | 740 nM

Source: article PMC4275181
